The numbers were not newly measured in patent publication US6518244B2, “Combinations of heparin cofactor II agonist and platelet IIb/IIIa antagonist, and uses thereof” (IntimaX Corporation, priority 2000, dated 2003), which cites them from elsewhere.

For this data set the following is noted: recipients of hirudin; cited from Huhle et al, Br. J. Haematol. (1999).

Turning to hirudin, the “recipients in whom anti-hirudin antibodies are elicited” value was 74%.
